This is an account of results in PMC3705364, “Biochemical and Electrophysiological Characterization of Two Sea Anemone Type 1 Potassium Toxins from a Geographically Distant Population of Bunodosoma caissarum” (Marine Drugs, 2013).

Experiment [1] concerns the target rKV1.6 (rat) (UniProt P17659).
Experiment [2] deals with rKV1.1 (rat) (UniProt P10499).
Experiment [3] has as its target T1, hKV1.3 (Homo sapiens, UniProt P22001).
Experiment [4] concerns the target rKV1.2 (rat) (UniProt P63142).
Experiment [5] deals with Shaker IR (insect) (UniProt P08510).
Experiment [6] addresses rKV1.6 (rat) (UniProt P17659). This is another data set of the same source.
Experiment [7] has as its target rKV1.1 (rat) (UniProt P10499). This is another data set of the same source.
For experiment [8], the target named is T1, hKV1.3. The source holds these as a separate data set.
For experiment [9], the target named is rKV1.2 (rat) (UniProt P63142). This is another data set of the same source.
Experiment [10] deals with Shaker IR (insect) (UniProt P08510). The source holds these as a separate data set.

Chain of rKV1.2 (rat) (P63142 whole entry): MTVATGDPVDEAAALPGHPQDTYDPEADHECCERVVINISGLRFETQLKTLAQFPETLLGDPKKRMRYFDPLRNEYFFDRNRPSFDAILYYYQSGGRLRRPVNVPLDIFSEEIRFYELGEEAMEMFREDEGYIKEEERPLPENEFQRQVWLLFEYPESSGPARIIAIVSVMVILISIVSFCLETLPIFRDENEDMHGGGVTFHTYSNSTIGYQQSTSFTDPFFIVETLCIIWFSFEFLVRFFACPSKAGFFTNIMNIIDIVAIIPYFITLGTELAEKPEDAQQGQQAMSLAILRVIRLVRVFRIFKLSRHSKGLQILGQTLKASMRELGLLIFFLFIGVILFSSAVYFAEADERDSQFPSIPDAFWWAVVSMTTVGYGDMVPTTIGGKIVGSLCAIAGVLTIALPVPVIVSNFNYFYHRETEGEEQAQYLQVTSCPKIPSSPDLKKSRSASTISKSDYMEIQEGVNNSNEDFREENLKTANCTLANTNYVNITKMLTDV
T1 sequence (P22001 whole entry): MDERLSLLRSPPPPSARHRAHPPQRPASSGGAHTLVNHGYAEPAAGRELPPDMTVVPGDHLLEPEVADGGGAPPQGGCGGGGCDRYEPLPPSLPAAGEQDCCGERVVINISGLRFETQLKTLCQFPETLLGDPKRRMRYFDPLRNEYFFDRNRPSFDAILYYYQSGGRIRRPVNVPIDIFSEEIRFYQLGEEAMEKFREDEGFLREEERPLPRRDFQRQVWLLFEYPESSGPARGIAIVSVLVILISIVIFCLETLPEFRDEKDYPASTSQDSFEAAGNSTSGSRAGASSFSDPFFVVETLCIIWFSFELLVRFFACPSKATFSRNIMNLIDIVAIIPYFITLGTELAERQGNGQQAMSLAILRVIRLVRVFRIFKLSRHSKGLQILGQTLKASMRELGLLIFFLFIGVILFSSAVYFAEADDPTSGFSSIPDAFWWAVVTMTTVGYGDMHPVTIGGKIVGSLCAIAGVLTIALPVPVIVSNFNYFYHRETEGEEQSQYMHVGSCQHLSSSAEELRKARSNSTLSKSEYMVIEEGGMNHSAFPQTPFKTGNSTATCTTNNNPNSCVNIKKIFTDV
Chain of rKV1.6 (rat) (P17659 whole entry): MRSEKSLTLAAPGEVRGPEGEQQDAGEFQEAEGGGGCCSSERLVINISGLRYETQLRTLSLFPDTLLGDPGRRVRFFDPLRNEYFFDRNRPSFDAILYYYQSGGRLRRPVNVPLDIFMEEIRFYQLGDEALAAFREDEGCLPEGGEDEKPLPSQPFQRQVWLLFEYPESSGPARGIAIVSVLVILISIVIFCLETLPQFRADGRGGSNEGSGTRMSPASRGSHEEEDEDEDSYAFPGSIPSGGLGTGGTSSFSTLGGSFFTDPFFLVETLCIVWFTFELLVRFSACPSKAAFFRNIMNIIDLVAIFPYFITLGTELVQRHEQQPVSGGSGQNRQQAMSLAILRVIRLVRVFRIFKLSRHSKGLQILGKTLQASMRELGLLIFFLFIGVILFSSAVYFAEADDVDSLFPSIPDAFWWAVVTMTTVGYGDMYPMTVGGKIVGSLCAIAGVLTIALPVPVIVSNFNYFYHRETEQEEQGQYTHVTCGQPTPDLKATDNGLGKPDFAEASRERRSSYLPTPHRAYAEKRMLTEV
Chain of rKV1.1 (rat) (P10499 whole entry): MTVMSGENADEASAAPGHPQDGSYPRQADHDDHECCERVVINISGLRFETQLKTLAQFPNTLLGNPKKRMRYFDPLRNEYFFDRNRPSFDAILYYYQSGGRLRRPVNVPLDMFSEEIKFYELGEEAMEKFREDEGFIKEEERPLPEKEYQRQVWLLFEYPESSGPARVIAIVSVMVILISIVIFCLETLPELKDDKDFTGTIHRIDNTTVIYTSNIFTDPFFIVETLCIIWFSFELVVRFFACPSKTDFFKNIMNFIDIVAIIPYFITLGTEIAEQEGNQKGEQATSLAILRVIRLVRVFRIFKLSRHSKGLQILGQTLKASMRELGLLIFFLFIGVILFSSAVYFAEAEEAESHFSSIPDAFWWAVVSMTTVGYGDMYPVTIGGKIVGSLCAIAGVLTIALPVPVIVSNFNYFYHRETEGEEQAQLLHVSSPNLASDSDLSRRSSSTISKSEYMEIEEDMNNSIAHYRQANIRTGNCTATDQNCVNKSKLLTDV
Chain of Shaker IR (insect) (P08510 whole entry): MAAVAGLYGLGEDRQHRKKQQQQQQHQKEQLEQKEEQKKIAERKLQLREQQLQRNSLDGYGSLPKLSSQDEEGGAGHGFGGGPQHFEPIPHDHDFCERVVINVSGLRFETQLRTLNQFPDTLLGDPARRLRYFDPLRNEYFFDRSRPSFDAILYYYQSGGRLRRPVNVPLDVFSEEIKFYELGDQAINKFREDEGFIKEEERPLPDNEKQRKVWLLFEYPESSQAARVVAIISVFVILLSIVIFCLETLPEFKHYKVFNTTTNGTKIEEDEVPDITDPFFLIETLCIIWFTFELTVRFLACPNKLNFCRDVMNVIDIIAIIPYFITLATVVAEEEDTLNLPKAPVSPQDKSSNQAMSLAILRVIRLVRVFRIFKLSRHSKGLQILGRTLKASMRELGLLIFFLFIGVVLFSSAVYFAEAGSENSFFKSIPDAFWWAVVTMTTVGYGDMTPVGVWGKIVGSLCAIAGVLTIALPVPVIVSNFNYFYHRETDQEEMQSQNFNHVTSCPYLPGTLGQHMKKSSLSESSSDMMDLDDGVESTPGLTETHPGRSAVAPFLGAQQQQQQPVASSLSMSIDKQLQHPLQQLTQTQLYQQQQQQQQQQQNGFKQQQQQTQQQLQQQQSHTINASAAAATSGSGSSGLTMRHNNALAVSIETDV

For the substance “BcsTx2 (from UniProt C0HJC3 1-37) (peptide)”, the percent inhibition of the channel's current by 3 µM BcsTx2, two-electrode voltage clamp on X. laevis oocytes in the experiment with rKV1.6 (rat) [1] was 98%; with rKV1.1 (rat) [2], 96%; with hKV1.3 [3], 100%; with rKV1.2 (rat) [4] it was 100%; with Shaker IR (insect) [5] it was 94%. Also, the IC50 of block of the channel's K+ current, two-electrode voltage clamp on X. laevis oocytes, concentration-response curve with rKV1.6 (rat) [6] is 7.76 nM; with rKV1.1 (rat) [7], 14.4 nM; in the experiment with hKV1.3 [8] it was 13.1 nM; in the experiment with rKV1.2 (rat) [9], 80.4 nM; in the experiment with Shaker IR (insect) [10], 49.1 nM.
For “BcsTx1 (from UniProt C0HJC2 1-38) (peptide)”, the percent inhibition of the channel's current by 0.5 µM BcsTx1, two-electrode voltage clamp on X. laevis oocytes was found to be 88% with rKV1.6 (rat) [1]; 44% with rKV1.1 (rat) [2]; 100% with hKV1.3 [3]; 100% with rKV1.2 (rat) [4]; 64% with Shaker IR (insect) [5]. Moreover, the IC50 of block of the channel's K+ current, two-electrode voltage clamp on X. laevis oocytes, concentration-response curve with rKV1.6 (rat) [6] was determined as 1.31 nM; in the experiment with rKV1.1 (rat) [7] it was 405 nM; in the experiment with hKV1.3 [8], 74.1 nM; with rKV1.2 (rat) [9] it was 0.03 nM; with Shaker IR (insect) [10] it was 248 nM.
